# B1: N-Cad/CTF2: chicken cytoplasmic domain of N-cadherin (N-Cad/CTF2) inserted into vector pECE, expressed in L cells (protein)
# chain: KRRDKERQAKQLLIDPEDDVRDNILKYDEEGGGEEDQDYDLSQLQQPDTVEPDAIKPVGIRRLDERPIHAEPQYPVRSAAPHPGDIGDFINEGLKAADNDPTAPPYDSLLVFDYEGSGSTAGSLSSLNSSSSGGEQDYDYLNDWGPRFKKLADMYGGGDD
# How the values were obtained:
# [1] = molecular target: T1, CBP (Mus musculus, UniProt P45481); experiment: Immunofluorescence staining of pN-Cad/CTF2-transfected L cells; type: cell-based; settings: compared to non-transfected controls
# T1 construct: a process that relies on endogenous CBP and CREB; endogenous in cells; host or cells: L cells transfected with vector or pN-Cad/CTF2
# Procedure: Immunoprecipitations (IPs), immunoblotting and immunofluorescence. IPs were performed as described by Marambaud et al. (2002) EMBO J. 21: 1948-1956 in 4° C. HEPES buffer (25 mM HEPES, pH 7.4, 150 mM NaCl, 1× Complete protease inhibitor cocktail, Roche) containing 0.5% Nonidet P40 (NP40). For western blot (WB) analysis, cells were solubilized in 4° C. RIPA buffer (50 mM Tris-HCl, pH 8, 150 mM NaCl, 0.1% SDS, 1% NP-40, 0.5% sodium deoxycholate, 1× Complete protease inhibitor cocktail) as described by Marambaud et al. (2002). Immunofluorescence was performed as described by Georgakopoulos et al. (1999) with the following modifications: to visualize nuclei, cells were treated for 5 minutes with 4′,6-diamidino-2-phenylndole (DAPI, 1:5000; Sigma). Fluorescence microscopy and digital image acquisition were carried out using an Axioskop2 microscope (Zeizz).
# To determine how N-Cad/CTF2 affects CREB-mediated transcription, the following experiments were performed. L cells transfected either with vector (vector) or pN-Cad/CTF2 (N-Cad/CTF2) plasmids were fractionated into nuclear and cytosolic fractions, and probed on WBs with anti-CBP (FIG. 11A, panel a), anti-N-cadherin (FIG. 11A, panel b), anti-β-tubulin (FIG. 11A, panel c) or anti-phosphorylated CREB (P-CREB; FIG. 11A, panel d) antibodies. […] L cells transiently transfected with pN-Cad/CTF2 were analyzed by immunofluorescence staining. […]
# [2] = tested on: CHOP-response elements; experiment: CHOP-mediated transactivation (luciferase) in L cells; type: cell-based; settings: L cells transfected with pN-Cad/CTF2, FIG. 9A
# Procedure: Transactivation assays. CRE-dependent transactivation was measured in the absence or presence of overexpression of PKA (pFC-PKA, Stratagene) by cotransfection with CRE-luciferase reporter plasmid (pCRE-Luc, Stratagene) and pSV-β-galactosidase vector (Promega) to evaluate transfection efficiency. CHOP-mediated transactivation was measured by cotransfection with the Gal4-fusion trans-activator plasmids (pFA-CHOP and pFR-Luc, Stratagene). 30 hours after transfection, luciferase and β-galactosidase activities were determined following manufacturer's instructions using a TD-20/20 luminometer (Turner Designs) and a DU-64 spectrophotometer (Beckman). Values were normalized to β-galactosidase activity and protein concentration.
# Stimulation of synaptic NMDA receptor leads to phosphorylation of transcription factor CREB that then recruits transcription co-activator CBP, a process ultimately leading to activation of CREB-mediated gene expression (Impey and Goodman (2001) Sci STKE, PE1). […] CRE-dependent transactivation was measured in the absence (−) or presence (+) of […] PKA (pFC-PKA) using CRE-luciferase reporter plasmid (pCRE-Luc) and pSV-β-galactosidase vector. CHOP-mediated transactivation was measured by […] with the Gal4-fusion trans-activator plasmids (pFA-CHOP and pFR-Luc) and pSV-β-galactosidase vector. […]
# T1 sequence (P45481 whole entry): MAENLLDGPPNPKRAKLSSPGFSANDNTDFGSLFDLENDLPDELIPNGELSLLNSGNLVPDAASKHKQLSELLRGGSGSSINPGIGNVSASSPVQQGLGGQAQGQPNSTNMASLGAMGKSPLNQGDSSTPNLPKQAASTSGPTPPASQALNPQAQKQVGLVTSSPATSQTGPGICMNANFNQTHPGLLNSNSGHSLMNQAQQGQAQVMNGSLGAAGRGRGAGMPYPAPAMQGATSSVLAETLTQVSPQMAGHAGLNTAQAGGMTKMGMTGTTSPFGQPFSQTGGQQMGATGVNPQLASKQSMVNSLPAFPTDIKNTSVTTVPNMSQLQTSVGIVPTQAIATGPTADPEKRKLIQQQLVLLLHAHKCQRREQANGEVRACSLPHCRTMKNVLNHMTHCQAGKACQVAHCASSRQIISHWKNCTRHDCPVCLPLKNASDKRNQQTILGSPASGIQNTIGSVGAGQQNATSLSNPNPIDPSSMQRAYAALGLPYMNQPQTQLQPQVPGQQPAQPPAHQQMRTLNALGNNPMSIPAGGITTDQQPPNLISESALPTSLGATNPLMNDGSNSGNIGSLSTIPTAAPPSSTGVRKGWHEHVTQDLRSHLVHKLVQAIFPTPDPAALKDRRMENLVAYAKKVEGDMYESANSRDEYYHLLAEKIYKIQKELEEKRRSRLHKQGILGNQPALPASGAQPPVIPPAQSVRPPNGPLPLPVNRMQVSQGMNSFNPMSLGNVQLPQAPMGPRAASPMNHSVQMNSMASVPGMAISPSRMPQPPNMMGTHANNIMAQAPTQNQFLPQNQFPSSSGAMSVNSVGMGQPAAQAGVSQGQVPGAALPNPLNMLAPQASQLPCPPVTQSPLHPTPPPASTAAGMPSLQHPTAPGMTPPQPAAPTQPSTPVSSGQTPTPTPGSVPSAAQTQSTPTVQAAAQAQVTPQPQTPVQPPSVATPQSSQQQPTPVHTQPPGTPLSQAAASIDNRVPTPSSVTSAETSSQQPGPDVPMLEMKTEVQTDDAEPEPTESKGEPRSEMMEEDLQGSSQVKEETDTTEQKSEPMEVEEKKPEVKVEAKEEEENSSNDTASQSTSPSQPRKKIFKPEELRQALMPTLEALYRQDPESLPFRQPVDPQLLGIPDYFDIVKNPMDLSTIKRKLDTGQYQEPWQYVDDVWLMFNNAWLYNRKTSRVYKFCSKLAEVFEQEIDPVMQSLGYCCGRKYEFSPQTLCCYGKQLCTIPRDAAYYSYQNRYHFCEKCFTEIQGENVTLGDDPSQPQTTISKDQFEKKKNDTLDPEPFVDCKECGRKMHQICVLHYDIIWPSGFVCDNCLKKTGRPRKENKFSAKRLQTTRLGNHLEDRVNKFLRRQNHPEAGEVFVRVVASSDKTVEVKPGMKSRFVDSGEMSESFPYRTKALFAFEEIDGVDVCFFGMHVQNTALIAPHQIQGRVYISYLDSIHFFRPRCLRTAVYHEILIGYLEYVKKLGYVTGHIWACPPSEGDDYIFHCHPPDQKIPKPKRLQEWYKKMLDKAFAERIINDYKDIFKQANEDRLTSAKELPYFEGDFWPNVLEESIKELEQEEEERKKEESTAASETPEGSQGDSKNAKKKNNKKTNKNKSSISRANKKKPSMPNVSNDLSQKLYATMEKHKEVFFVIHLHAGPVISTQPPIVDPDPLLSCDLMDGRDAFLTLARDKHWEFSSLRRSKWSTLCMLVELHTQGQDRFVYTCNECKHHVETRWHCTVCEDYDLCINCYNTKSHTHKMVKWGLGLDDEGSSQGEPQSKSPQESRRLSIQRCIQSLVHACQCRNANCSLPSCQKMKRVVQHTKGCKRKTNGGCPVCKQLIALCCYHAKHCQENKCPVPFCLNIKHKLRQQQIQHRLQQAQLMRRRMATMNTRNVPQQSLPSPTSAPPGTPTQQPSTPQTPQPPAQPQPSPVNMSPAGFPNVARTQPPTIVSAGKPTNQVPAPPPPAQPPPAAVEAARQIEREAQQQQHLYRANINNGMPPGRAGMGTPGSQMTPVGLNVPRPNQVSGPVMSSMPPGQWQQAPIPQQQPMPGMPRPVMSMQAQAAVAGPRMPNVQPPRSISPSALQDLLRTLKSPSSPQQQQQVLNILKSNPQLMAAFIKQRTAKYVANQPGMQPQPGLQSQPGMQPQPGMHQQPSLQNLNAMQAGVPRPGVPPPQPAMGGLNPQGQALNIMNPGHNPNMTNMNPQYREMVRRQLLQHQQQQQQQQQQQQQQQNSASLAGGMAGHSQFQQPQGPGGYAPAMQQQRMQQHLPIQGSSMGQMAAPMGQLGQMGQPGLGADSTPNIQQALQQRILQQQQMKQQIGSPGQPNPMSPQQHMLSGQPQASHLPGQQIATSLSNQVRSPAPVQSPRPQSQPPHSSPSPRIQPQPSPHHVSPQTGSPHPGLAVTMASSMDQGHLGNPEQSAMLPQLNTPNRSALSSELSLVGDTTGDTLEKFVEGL
molecule,measurement,setting,value
B1,cytoplasmic staining for N-Cad/CTF2 and CBP,[1],clear cytoplasmic staining for both N-Cad/CTF2 and CBP
same,transactivation by CHOP-response elements,[2],not affected
